Measured values published in the supplement of paper PMC10724198.
± gives the standard deviation of the averaged measurements.

The sequences below were run on Saccharomyces cerevisiae (assay: protein stability index of tFT-peptide fusion (C-terminal peptide) (PSI (0-1 scale)); higher = more stable (slower turnover)). Conditions: genetic background: wild type; temperature: 30 C.
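Note: PSI is a weighted mean of sequencing reads over stability bins, variants kept only with over 10 reads, mCherry proximal and sfGFP distal, peptide attached via GGGS linker.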

LPRPPPPPPPSP and LPRPTRLRTTPA are within error of each other in protein stability index: 0.827 ± 0.098 for the first, 0.685 ± 0.044 for the second.

Going from LPRSSRFPSPSR to LPRVPCRLAPPP, the protein stability index falls from 0.765 ± 0.012 to 0.689 ± 0.055.

LPSLASPRLIPS and LPSLPPPPSPSS are within error of each other in protein stability index: 0.609 ± 0.0066 for the first, 0.641 ± 0.029 for the second.

Going from LPSLTPPPLLLS to LPSPLGSSIFSN, the protein stability index rises from 0.582 ± 0.0083 to 0.693 ± 0.015.

LPSSVLTAAPSA and LPSTHVPPEPLG are within error of each other in protein stability index: 0.661 ± 0.076 for the first, 0.679 ± 0.077 for the second.

LPTATSFNALNS and LPTHYHQSHTEP are within error of each other in protein stability index: 0.714 ± 0.072 for the first, 0.681 ± 0.052 for the second.

LPTPRRHFRPPP and LPTVVTAVHQGL are within error of each other in protein stability index: 0.657 ± 0.028 for the first, 0.671 ± 0.014 for the second.

Compared with LPVPLPYFVSYF, LPVPPPPVSVAN is lower in protein stability index: 0.607 ± 0.009 for the first, 0.554 ± 0.0089 for the second.

First: LPVSPDTLSPPL
Second: LPWGGVVVGSMV
The protein stability index of the first is lower: 0.678 ± 0.022 for the first, 0.73 ± 0.019 for the second.

LQCGDWVETTGS and LQHSLNRKEIET are within error of each other in protein stability index: 0.709 ± 0.031 for the first, 0.688 ± 0.014 for the second.

Compared with LQLFLWRVVAPV, LQLLPPGLRQLP is higher in protein stability index: 0.477 ± 0.038 for the first, 0.679 ± 0.0079 for the second.

Going from LQTLSTLLPSLL to LRANSCCPLFGS, the protein stability index rises from 0.689 ± 0.023 to 0.739 ± 0.0036.

LRARTPPPSHLP and LRCWVGGALCGG are within error of each other in protein stability index: 0.693 ± 0.02 for the first, 0.685 ± 0.033 for the second.

LREKFFWTRIRR and LRFLPHIPSGLS are within error of each other in protein stability index: 0.724 ± 0.05 for the first, 0.716 ± 0.019 for the second.

Compared with LRFRPLSGRAFF, LRFSFFSSLFVL is lower in protein stability index: 0.664 ± 0.051 for the first, 0.516 ± 0.019 for the second.

Going from LRGAGAGPEDVG to LRGGGGAGVFFG, the protein stability index falls from 0.6847 ± 0.0026 to 0.6491 ± 0.0025.

LRHGLASYDHCG and LRHHARSYLPRL are within error of each other in protein stability index: 0.681 ± 0.02 for the first, 0.805 ± 0.18 for the second.

Compared with LRLFCVLARSVV, LRLHPSPPVPSR is higher in protein stability index: 0.528 ± 0.018 for the first, 0.7003 ± 0.0047 for the second.

LRPLSFPTHTLL and LRPPFFLSPLPS are within error of each other in protein stability index: 0.685 ± 0.021 for the first, 0.728 ± 0.034 for the second.

LRPPLASLRFSP and LRQQTRGTIIEC are within error of each other in protein stability index: 0.78 ± 0.11 for the first, 0.703 ± 0.029 for the second.

LRRAFPSSTPLK and LRSGFVVTLSLS are within error of each other in protein stability index: 0.698 ± 0.088 for the first, 0.621 ± 0.037 for the second.

LRSLNIVGTTAL and LRSLVRSRPAPP are within error of each other in protein stability index: 0.66 ± 0.043 for the first, 0.6744 ± 0.0042 for the second.

First: LRSVISLSSLFS
Second: LRTKRGKREEYD
The protein stability index of the first is lower: 0.686 ± 0.011 for the first, 0.73 ± 0.015 for the second.

First: LRVFPVFSWFDR
Second: LRYSPLLFLSVV
The protein stability index of the first is higher: 0.678 ± 0.15 for the first, 0.513 ± 0.013 for the second.

Going from LSALPSRPCSKR to LSAVISHLGNSK, the protein stability index falls from 0.6893 ± 0.005 to 0.65058 ± 0.0002.

LSCTTSSRPSPP and LSDDRTLFWISG are within error of each other in protein stability index: 0.699 ± 0.063 for the first, 0.728 ± 0.13 for the second.

LSDFSLPTFLLL and LSFFLSSALLHP are within error of each other in protein stability index: 0.72 ± 0.065 for the first, 0.7 ± 0.028 for the second.

LSFPSPSLCRPL and LSFSDPLSLPRH are within error of each other in protein stability index: 0.694 ± 0.1 for the first, 0.675 ± 0.079 for the second.

LSFTFSQLLSFP and LSGPLILHLTSL are within error of each other in protein stability index: 0.681 ± 0.16 for the first, 0.693 ± 0.057 for the second.

LSGRGVGSEGME and LSGTLALVVFTR are within error of each other in protein stability index: 0.721 ± 0.14 for the first, 0.6464 ± 0.001 for the second.

First: LSGYIFFSFRSF
Second: LSKTRRPKSADM
The protein stability index of the first is lower: 0.505 ± 0.01 for the first, 0.7 ± 0.025 for the second.

LSLGVYMGVGRG and LSLICSLVHSIM are within error of each other in protein stability index: 0.629 ± 0.0074 for the first, 0.635 ± 0.016 for the second.

LSLPRCPKGVAH and LSLSNILDYFYC are within error of each other in protein stability index: 0.672 ± 0.055 for the first, 0.685 ± 0.044 for the second.

Compared with LSLSTTLSADLY, LSLVDCIGFFFC is lower in protein stability index: 0.678 ± 0.021 for the first, 0.603 ± 0.043 for the second.

Going from LSLYGLLLPTFE to LSPALPPPMSAA, the protein stability index falls from 0.714 ± 0.037 to 0.577 ± 0.026.

LSPCPPLRPLLS and LSPFPSCLPPSV are within error of each other in protein stability index: 0.676 ± 0.081 for the first, 0.702 ± 0.045 for the second.

LSPGPVHDRSRP and LSPIPLPPPLTS are within error of each other in protein stability index: 0.675 ± 0.03 for the first, 0.699 ± 0.044 for the second.

LSPLHSPCLPCP and LSPPPSPLPPLP are the same in protein stability index: 0.679 ± 0.039 for the first, 0.679 ± 0.019 for the second.

LSPRPPSPPPPP and LSPRTMYHAYPV are within error of each other in protein stability index: 0.688 ± 0.011 for the first, 0.712 ± 0.067 for the second.

Going from LSPSGATFWTPS to LSRGGVSCWWGH, the protein stability index rises from 0.676 ± 0.055 to 0.772 ± 0.033.

Going from LSRGLVVSFVLK to LSSFIHCLYSHC, the protein stability index falls from 0.662 ± 0.014 to 0.606 ± 0.035.

Going from LSSRVYDCTRQG to LSSSLLSLLYNF, the protein stability index falls from 0.675 ± 0.045 to 0.534 ± 0.039.

LSTCVAESIEST and LSTPPRLPQPSP are within error of each other in protein stability index: 0.68 ± 0.01 for the first, 0.703 ± 0.051 for the second.

LSVLPAFYPRSP and LSVPPFSFTLSL are within error of each other in protein stability index: 0.758 ± 0.045 for the first, 0.807 ± 0.25 for the second.

Going from LSVPWSTRPFSV to LSYSLSSPRVFH, the protein stability index rises from 0.703 ± 0.019 to 0.7337 ± 0.0022.

LTDITGSIRNVH and LTDKHNETNINQ are within error of each other in protein stability index: 0.673 ± 0.037 for the first, 0.6501 ± 0.0042 for the second.

LTFSRFIENHYL and LTGSPDSNPNSV are within error of each other in protein stability index: 0.662 ± 0.015 for the first, 0.68 ± 0.084 for the second.

LTHQENNIWVSR and LTLPPLPPPSLP are within error of each other in protein stability index: 0.703 ± 0.057 for the first, 0.707 ± 0.0081 for the second.

Going from LTLTQAPVRTDF to LTPFFSRPSVLL, the protein stability index rises from 0.677 ± 0.018 to 0.72 ± 0.019.

LTPRPLPRLSPP and LTPYLYPQPSSP are within error of each other in protein stability index: 0.705 ± 0.028 for the first, 0.673 ± 0.031 for the second.

Compared with LTQPPPAPRVFF, LTRRSPSPRTLT is lower in protein stability index: 0.699 ± 0.013 for the first, 0.644 ± 0.03 for the second.

First: LTSLIPPLPFLF
Second: LTSSGLSFSAVL
The protein stability index of the first is lower: 0.669 ± 0.032 for the first, 0.7249 ± 0.0027 for the second.

LTYLLFPSSLQA and LVAYSPRFLHSP are within error of each other in protein stability index: 0.677 ± 0.04 for the first, 0.669 ± 0.038 for the second.

First: LVCLFRGCGLRD
Second: LVCRYLGLRCSD
The protein stability index of the first is higher: 0.714 ± 0.0084 for the first, 0.597 ± 0.035 for the second.

First: LVFCPCQSVVSL
Second: LVFGRGCGWLSG
The protein stability index of the first is lower: 0.59 ± 0.043 for the first, 0.664 ± 0.0071 for the second.

Going from LVFRPVPVIFGL to LVFSTLGSCFDG, the protein stability index rises from 0.635 ± 0.017 to 0.685 ± 0.0099.

LVGFGGGGDGVV and LVGGGDRPGLGR are within error of each other in protein stability index: 0.693 ± 0.032 for the first, 0.66 ± 0.0079 for the second.

LVGHENIVVRRA and LVGQVKYMIKEQ are within error of each other in protein stability index: 0.72 ± 0.011 for the first, 0.684 ± 0.028 for the second.

Going from LVGSSYGRTDML to LVLDCPISEVLL, the protein stability index falls from 0.715 ± 0.016 to 0.6403 ± 0.0055.

LVLLPSASPLLL and LVLVRPGSVSPE are within error of each other in protein stability index: 0.71 ± 0.044 for the first, 0.731 ± 0.018 for the second.

LVLYPFPPLHST and LVPTQGDFVVLL are within error of each other in protein stability index: 0.6749 ± 0.0053 for the first, 0.721 ± 0.053 for the second.

First: LVRCGLGASVVV
Second: LVRGGHRLSFRL
The protein stability index of the first is lower: 0.651 ± 0.041 for the first, 0.732 ± 0.015 for the second.

Going from LVSGASHWPSYT to LVSPLARLGLMI, the protein stability index rises from 0.694 ± 0.014 to 0.787 ± 0.05.

LVSPPTPPPFPP and LVSSSPLPFSPI are within error of each other in protein stability index: 0.702 ± 0.059 for the first, 0.646 ± 0.079 for the second.

LVYLASGMYRFV and LWAGGVAVAVSR are within error of each other in protein stability index: 0.607 ± 0.02 for the first, 0.638 ± 0.045 for the second.

LWCDPVLVLELR and LWCWVGGALCGG are within error of each other in protein stability index: 0.776 ± 0.072 for the first, 0.742 ± 0.17 for the second.

LWGIAGSGVLVG and LWQGGRAFWQPV are within error of each other in protein stability index: 0.635 ± 0.0069 for the first, 0.679 ± 0.046 for the second.

Going from LWVGGVGRVRGV to LWVGVVGRVRGV, the protein stability index falls from 0.69144 ± 0.00047 to 0.6609 ± 0.0062.

Compared with LYGASRCLVARS, LYICNYFKFKKR is higher in protein stability index: 0.664 ± 0.0093 for the first, 0.7096 ± 0.0069 for the second.

LYIRHPPSAPLP and LYKEQRNNCGKI are within error of each other in protein stability index: 0.808 ± 0.13 for the first, 0.662 ± 0.021 for the second.

Compared with LYLCFDVVKDLG, LYPRPSRFPPLL is higher in protein stability index: 0.582 ± 0.015 for the first, 0.732 ± 0.087 for the second.

First: LYRPFTAVPPSI
Second: LYTISAGEDELN
The protein stability index of the first is higher: 0.816 ± 0.082 for the first, 0.699 ± 0.018 for the second.

LYTSPLPAAFQL and LYYSEKRIKNVN are within error of each other in protein stability index: 0.726 ± 0.038 for the first, 0.643 ± 0.077 for the second.

MAEAVVLDPDMV and MCCSVGGLFFFF are within error of each other in protein stability index: 0.6831 ± 0.0055 for the first, 0.649 ± 0.04 for the second.

MCFLSCCSFRFC and MCVSSSAGVRQE are within error of each other in protein stability index: 0.6162 ± 0.0044 for the first, 0.638 ± 0.054 for the second.

Compared with MDGRVMAETCRA, MDHSGYWDISCG is higher in protein stability index: 0.585 ± 0.038 for the first, 0.801 ± 0.099 for the second.

Going from MDIVIGSQTEAN to MERAGTAEGGGA, the protein stability index falls from 0.7365 ± 0.0036 to 0.655 ± 0.008.

MGAGGGLCGMWA and MGGGGGLCGMWA are within error of each other in protein stability index: 0.705 ± 0.054 for the first, 0.723 ± 0.021 for the second.

MGHLFIPSQSQS and MGKNDSITPELA are within error of each other in protein stability index: 0.715 ± 0.048 for the first, 0.712 ± 0.029 for the second.

Compared with MGVGCFCCLFVG, MHGVSSGSSLVN is higher in protein stability index: 0.541 ± 0.011 for the first, 0.63 ± 0.038 for the second.
